The Kd is the concentration at which binding is half-saturated. A lower Kd goes with a tighter complex. For orientation: koff means a measure of how fast the partners let go of each other. The term kon denotes the second-order rate constant of association.

We go through four molecules from patent US20150197564A1 (Regeneron, published 2015).

For one assay, the target named is T1, hANGPTL3(17-460)-His (human, UniProt Q9Y5C1 17-460).
T1 construct: Bought protein (R&D Systems); also called full-length mature human ANGPTL3 with a C-terminal decahistidine tag; Human ANGPTL3 (17-460)-His
T1 sequence: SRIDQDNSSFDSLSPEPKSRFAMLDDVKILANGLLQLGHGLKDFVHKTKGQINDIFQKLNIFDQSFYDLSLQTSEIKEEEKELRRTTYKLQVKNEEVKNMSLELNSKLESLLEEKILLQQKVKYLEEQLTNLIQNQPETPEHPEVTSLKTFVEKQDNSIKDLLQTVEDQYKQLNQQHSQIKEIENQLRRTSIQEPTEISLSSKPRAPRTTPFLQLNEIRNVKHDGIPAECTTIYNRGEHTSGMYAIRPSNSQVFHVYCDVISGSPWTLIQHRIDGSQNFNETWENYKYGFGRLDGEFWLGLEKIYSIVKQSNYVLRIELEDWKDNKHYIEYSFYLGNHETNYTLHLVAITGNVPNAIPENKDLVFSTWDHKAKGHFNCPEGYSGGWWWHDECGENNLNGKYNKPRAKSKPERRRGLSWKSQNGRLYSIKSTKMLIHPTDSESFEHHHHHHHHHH
The experiment in a line: SPR Biacore, antigen captured, 25C, pH 7.4, HBS-EP. How it is done: (§1) All kinetic binding experiments were performed at 25° C. or 37° C. on a BIACORE™ T200 label-free molecular interaction instrument (GE Healthcare) using a CM5 sensor chip. Briefly, an antigen capture surface was generated by covalently coupling either an anti-mouse IgG-specific antibody (anti-mFc; GE Healthcare; catalog #BR-1008-38) or an anti-pentahistidine-specific antibody (Qiagen; catalog #34660) to the surface of a CM5 sensor chip using a standard amine coupling method.

Another assay has as its target T2, hANGPTL3(17-169)-mFc (human).
T2 construct: also called N-terminal coiled-coil domain of hANGPTL3 with a C-terminal mouse Fc fusion
T2 chain: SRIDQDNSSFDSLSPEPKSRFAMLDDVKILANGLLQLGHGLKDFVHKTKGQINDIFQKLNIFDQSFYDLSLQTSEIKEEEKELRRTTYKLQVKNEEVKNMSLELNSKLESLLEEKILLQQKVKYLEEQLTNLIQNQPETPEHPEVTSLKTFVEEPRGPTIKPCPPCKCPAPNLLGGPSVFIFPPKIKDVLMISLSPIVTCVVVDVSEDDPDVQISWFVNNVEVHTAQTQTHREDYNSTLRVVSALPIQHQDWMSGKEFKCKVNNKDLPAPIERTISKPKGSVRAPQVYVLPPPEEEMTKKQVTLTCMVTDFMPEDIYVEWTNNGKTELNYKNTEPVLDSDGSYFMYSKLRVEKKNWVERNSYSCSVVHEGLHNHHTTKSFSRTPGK
Briefly: SPR Biacore, antigen captured, 25C, pH 7.4, HBS-EP. The procedure: as §1

B1: H4H1295P (antibody, V domains shown)
VH: QVQLVQSGPEVKKPGASVRVSCKASGYLSDFIITWVRQAPGQGLEWMGWISTYSGDTDSAPKFQGRVTMTTDTSTTTVFLELRSLRSDDTAVYYCARGRLFDYWGQGTLVTVSS
VL: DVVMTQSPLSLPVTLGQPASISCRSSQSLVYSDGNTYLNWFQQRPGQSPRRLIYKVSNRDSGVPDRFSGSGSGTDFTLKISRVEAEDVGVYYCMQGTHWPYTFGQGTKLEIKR
In the assay with hANGPTL3(17-460)-His, B1 registered a Kd of 197 pM, a koff of 7.35e-05 s⁻¹, a kon of 373000 M⁻¹ s⁻¹ and a t1/2 of 2.62 h. Moreover, in the assay with hANGPTL3(17-169)-mFc, the Kd stood at 226 pM, the koff was determined as 7.95e-05 s⁻¹, the kon came out at 352000 M⁻¹ s⁻¹ and the t1/2 is 2.42 h.

B2: H4H1268S (antibody, IgG4, V domains shown)
VH: QVQLQQSGPGLVKPSQTLSLTCAISGDSVSSNSPAWNWIRQSPSRGLEWLGRTYYRSKWYNDYAVSVRGRITINPDTSNNQFSLHLNSVTPEDTAMYYCARDKGLTARPTYFDYWGQGTLVTVSS
VL: DIQMTQSPSTLSASVGDRVTITCRASQSINYWLAWYQQKPGKAPKPLIYKASSLESGVPSRFSGSGSGTEFTLTISSLQPDDFTTYYCQQYNSYSPTFGQGTKLEIKR
In the assay with hANGPTL3(17-460)-His, B2 registered a Kd of 1470 pM, a koff of 0.00189 s⁻¹, a kon of 1.29e+06 M⁻¹ s⁻¹ and a t1/2 of 0.1 h. In the assay with hANGPTL3(17-169)-mFc, this molecule registered a Kd of 721 pM, a koff of 0.000835 s⁻¹, an on-rate (kon) of 1.16e+06 M⁻¹ s⁻¹ and a t1/2 of 0.233 h.

B3: H4H1282P (antibody, IgG4, V domains shown)
VH: EVQLVQSGGGVVQPGRSLRLSCAASGFTFSNYGMHWVRQAPGKGLEWVAVVWYDGDNKYYADSVKGRFTISRDNSKNTLYLQMNSLRAEDTAVYYCARDIITSRPTLDYWGQGTLVTVSS
VL: DIQLTQSPSFLSASVGDRVTITCWASQGINSYLAWYQQKPGKAPKLLIYPASTLQSGVPSRFSGSGSGTEFTLTISSLQPVDFATYYCQQLNSYPLTFGGGTKVEIKR
In the assay with hANGPTL3(17-460)-His, B3 showed a Kd of 96.8 pM, a koff of 9.26e-05 s⁻¹, a kon of 957000 M⁻¹ s⁻¹ and a t1/2 of 2.08 h. In the assay with hANGPTL3(17-169)-mFc, this molecule gave a Kd of 46.3 pM, a koff of 5.92e-05 s⁻¹, a kon of 1.28e+06 M⁻¹ s⁻¹ and a t1/2 of 3.25 h.

B4: H4H1296P (antibody, IgG4, V domains shown)
VH: QVQLVESGGVSVKPGGSLRLSCAASGFTFSDYYMSWIRQAPGKGLEWVSYIGSSGTNDYYADSVKGRFTISRDNAKNSLYLQMDSLRAEDTAVYYCARDSSQMGFDYWGQGTLVTVSS
VL: DIQMTQSPSSLSASVGDRVTITCRASQNIINFLNWYQQRPGKAPQLLIYVAASLQSGVPSRFTGSGYGTDFTLTISSLQPEDFATYYCQQTYTNPLTFGGGTKVEIKR
In the assay with hANGPTL3(17-460)-His, B4 had a Kd of 137 pM, a koff of 4.12e-05 s⁻¹, a kon of 301000 M⁻¹ s⁻¹ and a t1/2 of 4.67 h. In the assay with hANGPTL3(17-169)-mFc, this molecule gave a dissociation constant (Kd) of 61.1 pM, a koff of 3.92e-05 s⁻¹, an association rate constant (kon) of 641000 M⁻¹ s⁻¹ and a t1/2 of 4.92 h.
